For one protein, expression_or_secretion results are on record in publication PMC3844954.

Data set [1] in a line: western blot of acetone-precipitated HEK293 medium. As to conditions: glycan lost; control: wild-type IFNλ4-FLAG.
A short description of data set [2]: IFNλ activity of supernatant, Mx1-luciferase reporter, HEK293+IFNλR1. The conditions noted are these: glycan lost; control: wild-type IFNλ4-FLAG. (In a reporter assay the amount or activity of a reporter protein is the signal.)

B1: IFNλ4 (interferon lambda 4): N61D (protein)
parent chain: MRPSVWAAVAAGLWVLCTVIAAAPRRCLLSHYRSLEPRTLAAAKALRDRYEEEALSWGQRNCSFRPRRDPPRPSSCARLRHVARGIADAQAVLSGLHRSELLPGAGPILELLAAAGRDVAACLELARPGSSRKVPGAQKRRHKPRRADSPRCRKASVVFNLLRLLTWELRLAAHSGPCL
B1: the expression_or_secretion result in data set [1] and in data set [2] was “decreases” each time.
